The values below come from PMC9295147 (2022).

Numbering of substitutions follows the chain as printed.

The target in assay [1] is T1, mExoS peptide (C-terminal region of exoenzyme S).
T1 chain: QGLLDALDLAS
In words: fluorescence polarisation. Background: Fluorescence polarisation rises when a labelled molecule tumbles more slowly, as on binding a larger partner.

In assay [2] the target is T2, dT14-3-3_biPKB, unphosphorylated (Tobacco | ).
T2 chain: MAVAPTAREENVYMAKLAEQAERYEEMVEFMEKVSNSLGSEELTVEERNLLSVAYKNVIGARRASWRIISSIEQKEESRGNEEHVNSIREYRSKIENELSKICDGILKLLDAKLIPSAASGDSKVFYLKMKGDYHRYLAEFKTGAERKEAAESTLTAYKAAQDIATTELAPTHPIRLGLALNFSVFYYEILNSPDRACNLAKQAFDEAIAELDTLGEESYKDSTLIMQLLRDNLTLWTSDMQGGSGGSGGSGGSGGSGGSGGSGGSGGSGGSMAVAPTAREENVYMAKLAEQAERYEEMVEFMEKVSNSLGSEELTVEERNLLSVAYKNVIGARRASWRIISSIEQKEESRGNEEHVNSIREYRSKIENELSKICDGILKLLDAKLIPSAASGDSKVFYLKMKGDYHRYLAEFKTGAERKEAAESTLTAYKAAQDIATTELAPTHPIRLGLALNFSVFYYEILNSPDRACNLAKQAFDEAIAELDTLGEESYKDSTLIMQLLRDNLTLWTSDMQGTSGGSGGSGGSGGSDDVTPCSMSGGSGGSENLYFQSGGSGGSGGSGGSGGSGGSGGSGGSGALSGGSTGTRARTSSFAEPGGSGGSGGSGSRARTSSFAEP
The assay is described as follows: FP.

The target in assay [3] is T3, dT14-3-3_biPKA, unphosphorylated (Tobacco | ).
T3 chain: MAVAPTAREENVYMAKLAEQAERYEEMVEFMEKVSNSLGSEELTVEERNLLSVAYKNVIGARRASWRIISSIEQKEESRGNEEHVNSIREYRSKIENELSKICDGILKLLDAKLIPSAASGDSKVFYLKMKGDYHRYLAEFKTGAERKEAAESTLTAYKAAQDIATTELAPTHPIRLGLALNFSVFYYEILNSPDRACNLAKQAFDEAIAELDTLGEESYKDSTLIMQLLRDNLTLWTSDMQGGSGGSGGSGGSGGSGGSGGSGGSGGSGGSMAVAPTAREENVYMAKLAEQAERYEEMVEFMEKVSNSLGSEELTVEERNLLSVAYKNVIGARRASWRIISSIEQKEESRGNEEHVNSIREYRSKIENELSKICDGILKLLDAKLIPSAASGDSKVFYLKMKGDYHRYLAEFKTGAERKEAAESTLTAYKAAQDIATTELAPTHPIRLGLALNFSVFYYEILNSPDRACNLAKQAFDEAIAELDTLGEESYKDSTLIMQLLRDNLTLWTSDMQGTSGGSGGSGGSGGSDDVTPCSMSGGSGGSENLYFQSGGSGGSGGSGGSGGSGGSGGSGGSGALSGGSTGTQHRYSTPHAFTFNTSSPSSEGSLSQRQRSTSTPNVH
The assay is described as follows: FP.

Assay [4] addresses T4, dT14-3-3_PKA/CHK1, unphosphorylated (Tobacco | ).
T4 chain: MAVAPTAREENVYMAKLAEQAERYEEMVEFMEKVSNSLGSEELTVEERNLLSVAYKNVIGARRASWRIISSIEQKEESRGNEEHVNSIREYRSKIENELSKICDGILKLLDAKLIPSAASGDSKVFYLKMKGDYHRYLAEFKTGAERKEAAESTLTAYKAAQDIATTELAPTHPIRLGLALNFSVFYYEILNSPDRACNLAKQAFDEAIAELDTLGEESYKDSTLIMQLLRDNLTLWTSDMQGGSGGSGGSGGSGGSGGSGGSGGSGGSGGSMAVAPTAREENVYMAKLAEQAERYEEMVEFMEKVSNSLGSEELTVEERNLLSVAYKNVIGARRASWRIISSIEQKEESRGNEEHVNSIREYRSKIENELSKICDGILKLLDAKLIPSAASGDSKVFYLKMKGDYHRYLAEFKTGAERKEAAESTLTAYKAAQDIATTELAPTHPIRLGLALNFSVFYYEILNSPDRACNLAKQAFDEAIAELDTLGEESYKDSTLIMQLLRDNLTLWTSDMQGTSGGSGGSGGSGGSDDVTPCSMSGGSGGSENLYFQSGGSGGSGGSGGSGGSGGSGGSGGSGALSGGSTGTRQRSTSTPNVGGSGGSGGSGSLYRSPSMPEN
The assay is described as follows: FP.

The target in assay [5] is T5, dT14-3-3_biCHK1, unphosphorylated (Tobacco | ).
T5 chain: T4 chain with R586L, Q587Y, T590P, T592M, N594E, V595N
In words: FP.

Assay [6] deals with T6, dimeric Tobacco 14-3-3 scaffold (Tobacco).
T6 chain: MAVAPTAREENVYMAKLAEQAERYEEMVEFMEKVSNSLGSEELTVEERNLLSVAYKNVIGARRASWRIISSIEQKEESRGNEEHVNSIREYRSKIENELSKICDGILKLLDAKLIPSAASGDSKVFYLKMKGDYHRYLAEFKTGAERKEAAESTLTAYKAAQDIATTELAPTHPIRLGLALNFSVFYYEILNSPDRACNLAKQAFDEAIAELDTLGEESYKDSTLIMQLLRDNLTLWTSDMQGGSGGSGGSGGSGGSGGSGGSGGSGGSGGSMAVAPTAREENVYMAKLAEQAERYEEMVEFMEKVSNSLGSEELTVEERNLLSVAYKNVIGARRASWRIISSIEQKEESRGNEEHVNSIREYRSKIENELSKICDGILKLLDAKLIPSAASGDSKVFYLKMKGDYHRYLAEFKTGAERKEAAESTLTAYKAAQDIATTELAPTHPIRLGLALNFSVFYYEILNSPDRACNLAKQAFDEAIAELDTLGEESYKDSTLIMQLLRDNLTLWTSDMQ
In words: FP.

In assay [7] the target is T7, dT14-3-3_PKB/CHK1, unphosphorylated (Tobacco | ).
T7 chain: T2 chain with R607L, A608Y, T610S, S611P, F613M, A614P, P616N
In words: FP.

The target of assay [8] is T8, dT14-3-3_PKA/PKB, unphosphorylated (Tobacco | ).
T8 chain: T2 chain with A587Q, T589S, S590T, F592T, A593P, E594N, P595V
The assay is described as follows: FP.

B1: dT14-3-3_biPKA, phosphorylated by PKA (protein)
chain: T3 chain
modifications: not checked
The molecule B1 yielded a fold decrease in binding affinity relative to the unphosphorylated state in assay [1] of 35 fold.

B2: dT14-3-3_biPKB, phosphorylated by PKB (protein)
chain: T2 chain
modifications: not checked
In assay [1], B2 had a fold decrease in binding affinity relative to the unphosphorylated state of 10 fold.
For the molecule QGLLDALDLAS [mExoS peptide (C-terminal region of exoenzyme S)], the Kd (in general, the equilibrium constant for the complex coming apart) in assay [2] worked out at 6.91 µM; in assay [3], 5.77 µM; in assay [4], 6.64 µM; in assay [5] it was 7.57 µM; in assay [6] it was 9.69 µM; in assay [7] it was 6.62 µM. Further, the Kd in assay [8] was found to be 6.43 µM.
